The source of these data is publication PMC9634968.

First the molecules themselves.
B1: CXCR4: N15A (protein)
parent chain: MSIPLPLLQIYTSDNYTEEMGSGDYDSMKEPCFREENANFNKIFLPTIYSIIFLTGIVGNGLVILVMGYQKKLRSMTDKYRLHLSVADLLFVITLPFWAVDAVANWYFGNFLCKAVHVIYTVNLYSSVLILAFISLDRYLAIVHATNSQRPRKLLAEKVVYVGVWIPALLLTIPDFIFANVSEADDRYICDRFYPNDLWVVVFQFQHIMVGLILPGIVILSCYCIIISKLSHSKGHQKRKALKTTVILILAFFACWLPYYIGISIDSFILLEIIKQGCEFENTVHKWISITEALAFFHCCLNPILYAFLGAKFKTSAQHALTSVSRGSSLKILSKGKRGGHSSVSTESESSSFHSS
B2: CXCR4: N180A (protein)
parent chain: MSIPLPLLQIYTSDNYTEEMGSGDYDSMKEPCFREENANFNKIFLPTIYSIIFLTGIVGNGLVILVMGYQKKLRSMTDKYRLHLSVADLLFVITLPFWAVDAVANWYFGNFLCKAVHVIYTVNLYSSVLILAFISLDRYLAIVHATNSQRPRKLLAEKVVYVGVWIPALLLTIPDFIFANVSEADDRYICDRFYPNDLWVVVFQFQHIMVGLILPGIVILSCYCIIISKLSHSKGHQKRKALKTTVILILAFFACWLPYYIGISIDSFILLEIIKQGCEFENTVHKWISITEALAFFHCCLNPILYAFLGAKFKTSAQHALTSVSRGSSLKILSKGKRGGHSSVSTESESSSFHSS
B3: CXCR4: N15A/N180A (protein)
parent chain: MSIPLPLLQIYTSDNYTEEMGSGDYDSMKEPCFREENANFNKIFLPTIYSIIFLTGIVGNGLVILVMGYQKKLRSMTDKYRLHLSVADLLFVITLPFWAVDAVANWYFGNFLCKAVHVIYTVNLYSSVLILAFISLDRYLAIVHATNSQRPRKLLAEKVVYVGVWIPALLLTIPDFIFANVSEADDRYICDRFYPNDLWVVVFQFQHIMVGLILPGIVILSCYCIIISKLSHSKGHQKRKALKTTVILILAFFACWLPYYIGISIDSFILLEIIKQGCEFENTVHKWISITEALAFFHCCLNPILYAFLGAKFKTSAQHALTSVSRGSSLKILSKGKRGGHSSVSTESESSSFHSS

The series in a line: Western blot after 125 nM CXCL12, 30 min, HEK 293T. As to conditions: glycan lost; control: wild type. Background: A western blot detects proteins with antibodies after separation by electrophoresis.
With B1, the degradation_or_half_life result is “increases”.

Turning to B2, the degradation_or_half_life result was “no change”.

With B3, the degradation_or_half_life entry is reported as “increases”.
